The values that follow come from paper PMC9119168 (Antiviral Research, 2022).

The target in experiment [1] is T1, SARS-CoV-2 Mac1 (conserved macrodomain of non-structural protein 3), His-tagged (SARS-CoV-2, UniProt P0DTD1). As to the kind of experiment: fluorescence polarisation. (Polarisation of emitted light reports the rotation of a fluorescent probe.)
Experiment [2] has as its target T1, SARS-CoV-2 Mac1 (conserved macrodomain …). As to the kind of experiment: AlphaScreen or HTRF. For orientation: Alpha assays give light when donor and acceptor beads are brought close together.

Where no end group is shown, it is not given here. Side-chain parts run from the residue outwards. The star is where a group is joined. Biotin = O=C1N[C@H]2[C@H](CS[C@H]2CCCCC(=O)*)N1; Aoa = not defined here

B1: fluorescein labeled ADP-ribosylated peptide [5 Flu-ARTKQTARK (Aoa-RADP)S] (peptide)
peptide: ARTKQTARKS
Turning to B1, in experiment [1], the binding result is listed as “binds”.

B2: 10 amino acid biotinylated and ADP-ribosylated peptide [ARTK(Bio)QTARK (Aoa-RADP)S] (peptide)
peptide: ARTK(Biotin)QTARK([Aoa-ADP‑ribose])S
modifications: reading uncertain
For B2, the binding result in experiment [2] was “binds”.
